Patent US20060034848A1 (published 2006)

Target: T1, LC-myc with the second NPxY motif mutated to APxA (UniProt Q07954 3944-4544, limits assumed)
T1 construct: domain: light chain (LC); The substitutions have no printed residue numbers; also called 2nd NPxY mutant; not shown: C-terminal myc tag
T1 sequence (looked up): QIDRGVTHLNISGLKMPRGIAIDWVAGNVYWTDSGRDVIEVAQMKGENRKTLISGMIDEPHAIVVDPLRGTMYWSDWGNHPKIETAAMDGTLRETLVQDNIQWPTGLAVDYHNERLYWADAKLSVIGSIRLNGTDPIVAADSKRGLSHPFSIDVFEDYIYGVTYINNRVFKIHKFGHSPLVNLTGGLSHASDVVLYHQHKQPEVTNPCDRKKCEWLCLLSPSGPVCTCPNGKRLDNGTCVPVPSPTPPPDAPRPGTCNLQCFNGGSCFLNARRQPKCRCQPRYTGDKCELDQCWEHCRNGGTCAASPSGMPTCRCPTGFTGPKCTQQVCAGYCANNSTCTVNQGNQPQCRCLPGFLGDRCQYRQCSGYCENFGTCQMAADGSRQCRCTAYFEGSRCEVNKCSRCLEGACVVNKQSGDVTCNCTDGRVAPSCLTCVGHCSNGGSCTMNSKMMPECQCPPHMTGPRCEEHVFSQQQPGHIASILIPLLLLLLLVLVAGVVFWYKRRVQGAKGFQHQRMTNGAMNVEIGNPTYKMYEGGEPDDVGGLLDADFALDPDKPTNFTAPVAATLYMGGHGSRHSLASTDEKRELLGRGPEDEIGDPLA
Assay: FLIM/FRET in cells

binding result: binds
B1: BACE (wild type; tag of the construct not stated at that place) (enzyme, human, UniProt P56817 46-501, looked up)
chain: ETDEEPEEPGRRGSFVEMVDNLRGKSGQGYYVEMTVGSPPQTLNILVDTGSSNFAVGAAPHPFLHRYYQRQLSSTYRDLRKGVYVPYTQGKWEGELGTDLVSIPHGPNVTVRANIAAITESDKFFINGSNWEGILGLAYAEIARPDDSLEPFFDSLVKQTHVPNLFSLQLCGAGFPLNQSEVLASVGGSMIIGGIDHSLYTGSLWYTPIRREWYYEVIIVRVEINGQDLKMDCKEYNYDKSIVDSGTTNLRLPKKVFEAAVKSIKAASSTEKFPDGFWLGEQLVCWQAGTTPWNIFPVISLYLMGEVTNQSFRITILPQQYLRPVEDVATSQDDCYKFAISQSSTGTVMGAVIMEGFYVVFDRARKRIGFAVSACHVHDEFRTAAVEGPFVTLDMEDCGYNIPQTDESTLMTIAYVMAAICALFMLPLCLMVCQWRCLRCLRQQHDDFADDISLLK
notes: whole, on cells; Used for the sentences that say only BACE or WT-BACE (NPxY mutant FLIM, Fe65 and mDab1 FRET, shedding, CTF and luciferase assays); also called WT-BACE
